From patent publication US20240368269A1 come the findings set out here.

The assay addresses DLL3 (target in the Fab-Zap internalization assay) (UniProt Q9NYJ7). In words: cell-based or functional assay.

DLL3 (target in the Fab-Zap internalization assay), sequence (Q9NYJ7 27-618 limits assumed): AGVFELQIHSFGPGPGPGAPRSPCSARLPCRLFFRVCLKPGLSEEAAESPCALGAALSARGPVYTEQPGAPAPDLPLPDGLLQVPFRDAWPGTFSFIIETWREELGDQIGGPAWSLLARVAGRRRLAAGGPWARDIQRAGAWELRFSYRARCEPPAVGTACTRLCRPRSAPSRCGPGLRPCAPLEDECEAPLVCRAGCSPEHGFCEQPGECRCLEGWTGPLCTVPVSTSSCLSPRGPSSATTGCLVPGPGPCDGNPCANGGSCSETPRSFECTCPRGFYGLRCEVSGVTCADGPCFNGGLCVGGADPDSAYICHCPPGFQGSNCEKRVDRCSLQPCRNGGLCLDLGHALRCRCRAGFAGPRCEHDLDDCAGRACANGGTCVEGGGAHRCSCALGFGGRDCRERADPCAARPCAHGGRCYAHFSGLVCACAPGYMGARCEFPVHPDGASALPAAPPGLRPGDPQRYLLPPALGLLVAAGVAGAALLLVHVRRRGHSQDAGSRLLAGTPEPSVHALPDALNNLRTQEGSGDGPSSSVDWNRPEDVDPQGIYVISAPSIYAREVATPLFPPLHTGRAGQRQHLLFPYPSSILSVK

The substance “Rovalpituzumab Tesirine (SC16LD6.5) (antibody)” showed a Percent Max Killing (Fab-Zap internalization assay, 10 ug/ml) of 96%.
